Results reported in patent US20210115124A1 (Genentech, published 2021).
Where a chain is given by its changes, count along the chain named. Names and notes keep the numbering of the source. One block for each binder: values may come before it.

Experiments:
human VEGF (hVEGF) [1] = target: T1, human VEGF (hVEGF) (human, UniProt P15692 181-395); assay: SPR
T1 construct: also called VEGF-A
T1 sequence: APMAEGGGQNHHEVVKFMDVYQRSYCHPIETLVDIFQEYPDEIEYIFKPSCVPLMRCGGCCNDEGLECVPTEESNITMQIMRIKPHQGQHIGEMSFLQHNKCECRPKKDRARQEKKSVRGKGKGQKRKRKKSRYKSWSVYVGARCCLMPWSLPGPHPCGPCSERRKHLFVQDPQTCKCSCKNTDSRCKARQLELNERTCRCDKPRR
Text: (§1) To determine the binding affinity of selected Fab variants, SPR measurement with a BIACORE® T200 instrument was used. Briefly, series S sensor chip CM5 was activated with 1-ethyl-3-(3-dimethylaminopropyl) carbodiimide (EDC) and N-hydroxysuccinimide (NHS) reagents according to the supplier's instructions, and human VEGF (hVEGF) was coupled to achieve 50-80 response units (RU), then following by blocking un-reacted groups with 1M ethanolamine.
(§2) Three-fold serial dilutions of Fab in HBS-P buffer (0.01 M HEPES pH 7.4, 0.15 M NaCl, 0.005% surfactant P20) from low (0.02 nM) to high (50 nM) were injected (flow rate: 30 μl/min). The binding responses on hVEGF were corrected by subtracting of RU from a blank flow cell. The sensorgram was recorded and subject to reference and buffer subtraction before evaluating by BIACORE® T200 Evaluation Software (version 2.0). Association rates (kₒₙ) and dissociation rates (koff) were calculated using a simple one-to-one Langmuir binding model. The equilibrium dissociation constant (Kd) was calculated as the ratio koff/kₒₙ.

human VEGF (hVEGF) [2] = target: T1, human VEGF (hVEGF); assay: BIACORE SPR on immobilised hVEGF; label beside the mutation on the structure of the VEGF-bound G6 Fab (PDB 2FJG)
human VEGF (hVEGF) [3] = target: T1, human VEGF (hVEGF); assay: SPR single-cycle
human VEGF (hVEGF) [4] = target: T1, human VEGF (hVEGF); assay: SPR; remark: listed apart in the source
Text: as §1, §2

human VEGF (hVEGF) [5] = target: T1, human VEGF (hVEGF); assay: SPR; remark: listed apart in the source
Text: as §1, §2

human VEGF (hVEGF) [6] = target: T1, human VEGF (hVEGF); assay: SPR multiple-cycle
Text: as §1, §2

human VEGF (hVEGF) [7] = target: T1, human VEGF (hVEGF); assay: SPR; remark: listed apart in the source
Text: as §1, §2

B2: G6.31 HC-Q81S (Fab, name in Kabat numbering, V domains shown)
VH: EVQLVESGGGLVQPGGSLRLSCAASGFTISDYWIHWVRQAPGKGLEWVAGITPAGGYTYYADSVKGRFTISADTSKNTAYLSMNSLRAEDTAVYYCARFVFFLPYAMDYWGQGTLVTVSS
VL: DIQMTQSPSSLSASVGDRVTITCRASQDVSTAVAWYQQKPGKAPKLLIYSASFLYSGVPSRFSGSGSGTDFTLTISSLQPEDFATYYCQQGYGNPFTFGQGTKVEIK
notes: Fab
fold change in binding affinity (Kd) compared to G6.31 (human VEGF (hVEGF) [2]): 3 x
Fold difference (relative to G6.31) (human VEGF (hVEGF) [3]): 3.4 fold
Kd (human VEGF (hVEGF) [3]): 0.45 nM
koff (human VEGF (hVEGF) [3]): 0.000487 s⁻¹
kon (human VEGF (hVEGF) [3]): 1.07e+06 M⁻¹ s⁻¹

B3: G6.31 LC-T97N (Fab, V domains shown)
VH: B2 VH with S82Q
VL: B2 VL with T97N
notes: Fab
Fold difference (relative to G6.31) (human VEGF (hVEGF) [3]): 0.8 fold
Kd (human VEGF (hVEGF) [3]): 1.86 nM
koff (human VEGF (hVEGF) [3]): 0.000802 s⁻¹
kon (human VEGF (hVEGF) [3]): 432000 M⁻¹ s⁻¹

B5: G6.31 HC-A53R (Fab, name in Kabat numbering, V domains shown)
VH: B2 VH with A54R, S82Q
VL: B2 VL
notes: Fab
fold change in binding affinity (Kd) compared to G6.31 (human VEGF (hVEGF) [2]): 4 x
Fold difference (relative to G6.31) (human VEGF (hVEGF) [3]): 3.7 fold
Kd (human VEGF (hVEGF) [3]): 0.42 nM
koff (human VEGF (hVEGF) [3]): 0.00035 s⁻¹
kon (human VEGF (hVEGF) [3]): 829000 M⁻¹ s⁻¹

B8: G6.31 Y58R.N94A.F83A (Fab, name in Kabat numbering, V domains shown)
VH: B2 VH with Y59R, S82Q
VL: B2 VL with F83A, N94A
notes: Fab
Fold improved (relative to WT) (human VEGF (hVEGF) [5]): 3.9 fold
Kd (human VEGF (hVEGF) [5]): 0.135 nM
koff (human VEGF (hVEGF) [5]): 0.000301 s⁻¹
kon (human VEGF (hVEGF) [5]): 2.22e+06 M⁻¹ s⁻¹

B9: G6.31 LC-N94Q (Fab, V domains shown)
VH: B2 VH with S82Q
VL: B2 VL with N94Q
notes: Fab
Kd (human VEGF (hVEGF) [6]): 1.14 nM
koff (human VEGF (hVEGF) [6]): 0.000362 s⁻¹
kon (human VEGF (hVEGF) [6]): 318000 M⁻¹ s⁻¹
Fold difference (relative to G6.31) (human VEGF (hVEGF) [3]): 0.3 fold
Kd (human VEGF (hVEGF) [3]): 4.78 nM
koff (human VEGF (hVEGF) [3]): 0.00133 s⁻¹
kon (human VEGF (hVEGF) [3]): 278000 M⁻¹ s⁻¹

B11: G6.31 LC-F83A, LC-N94A, LC-T22D (Fab, name in Kabat numbering, V domains shown)
VH: B2 VH with S82Q
VL: B2 VL with T22D, F83A, N94A
notes: Fab
Kd (human VEGF (hVEGF) [7]): 0.558 nM
koff (human VEGF (hVEGF) [7]): 0.000744 s⁻¹
kon (human VEGF (hVEGF) [7]): 1.33e+06 M⁻¹ s⁻¹

B12: G6.31 HC-A40E, HC-T57E, LC-F83A, LC-N94A, LC-T22D (Fab, name in Kabat numbering, V domains shown)
VH: B2 VH with A40E, T58E, S82Q
VL: B2 VL with T22D, F83A, N94A
notes: Fab
Kd (human VEGF (hVEGF) [7]): 0.597 nM
koff (human VEGF (hVEGF) [7]): 0.000718 s⁻¹
kon (human VEGF (hVEGF) [7]): 1.2e+06 M⁻¹ s⁻¹

Further lines, results first:

Kd (human VEGF (hVEGF) [1]): 1.11 nM
koff (human VEGF (hVEGF) [1]): 0.000667 s⁻¹
kon (human VEGF (hVEGF) [1]): 599000 M⁻¹ s⁻¹
B1: LCcombo2 (G6.31 WT VH with LCcombo2 VL) (Fab, V domains shown)
VH: B2 VH with S82Q
VL: B2 VL with R18E, K42E, S76E, F83A, N94A
notes: Fab

Kd (human VEGF (hVEGF) [1]): 2.27 nM
koff (human VEGF (hVEGF) [1]): 0.00101 s⁻¹
kon (human VEGF (hVEGF) [1]): 447000 M⁻¹ s⁻¹
B4: LCcombo1 (G6.31 WT VH with LCcombo1 VL) (Fab, V domains shown)
VH: B2 VH with S82Q
VL: B2 VL with S9E, R18E, F83A, N94A
notes: Fab

Kd (human VEGF (hVEGF) [1]): 1.75 nM
koff (human VEGF (hVEGF) [1]): 0.000808 s⁻¹
kon (human VEGF (hVEGF) [1]): 463000 M⁻¹ s⁻¹
B6: LCcombo4 (G6.31 WT VH with LCcombo4 VL) (Fab, V domains shown)
VH: B2 VH with S82Q
VL: B2 VL with R18E, F83A, N94A
notes: Fab

Kd (human VEGF (hVEGF) [4]): 0.134 nM
koff (human VEGF (hVEGF) [4]): 0.000274 s⁻¹
kon (human VEGF (hVEGF) [4]): 2.05e+06 M⁻¹ s⁻¹
Kd (human VEGF (hVEGF) [1]): 0.134 nM
koff (human VEGF (hVEGF) [1]): 0.000274 s⁻¹
kon (human VEGF (hVEGF) [1]): 2.05e+06 M⁻¹ s⁻¹
B7: HCcombo (Fab, V domains shown)
VH: EEQLVEEGGGLVQPGESLELSCAASGFEISDYWIHWVRQEPGEGLEWVAGITPAGGYEYYADSVEGRFTISADTSENTAYLQMNELRAEDTAVYYCARFVFFLPYAMDYWGQGELVTVSS
VL: B2 VL
notes: Fab

Kd (human VEGF (hVEGF) [1]): 1.34 nM
koff (human VEGF (hVEGF) [1]): 0.000768 s⁻¹
kon (human VEGF (hVEGF) [1]): 574000 M⁻¹ s⁻¹
B10: LCcombo3 (G6.31 WT VH with LCcombo3 VL) (Fab, V domains shown)
VH: B2 VH with S82Q
VL: B2 VL with S9E, R18E, K42E, F83A, N94A
notes: Fab
